According to the Human Domainome abundance scans (Beltran et al. 2025):
± gives the uncertainty stated by the source.

B1: Friend leukemia integration 1 transcription factor, residues 116 to 197; numbered along this chain, Q01543 (parent)
chain: NMTTNERRVIVPADPTLWTQEHVRQWLEWAIKEYSLMEIDTSFFQNMDGKELCKMNKEDFLRATTLYNTEVLLSHLSYLRES

Variants of: B1
Experiment: abundance fitness (aPCA) (normalised: wild type 0, dead -1); higher = more abundant; growth selection in yeast, the domain comes from the species named
Conditions: Homo sapiens

Variant	abundance fitness
NMTTNERRVIVPADTTLWTQEHVRQWLEWAIKEYSLMEIDTSFFQNMDGKELCKMNKEDFLRATTLYNTEVLLSHLSYLRES	-0.42 ± 0.08
NMTTNERRVIVPADETLWTQEHVRQWLEWAIKEYSLMEIDTSFFQNMDGKELCKMNKEDFLRATTLYNTEVLLSHLSYLRES	-0.854 ± 0.13
NMTTNERRVIVPADVTLWTQEHVRQWLEWAIKEYSLMEIDTSFFQNMDGKELCKMNKEDFLRATTLYNTEVLLSHLSYLRES	-0.056 ± 0.048
NMTTNERRVIVPADRTLWTQEHVRQWLEWAIKEYSLMEIDTSFFQNMDGKELCKMNKEDFLRATTLYNTEVLLSHLSYLRES	-0.92 ± 0.096
NMTTNERRVIVPADHTLWTQEHVRQWLEWAIKEYSLMEIDTSFFQNMDGKELCKMNKEDFLRATTLYNTEVLLSHLSYLRES	-0.892 ± 0.28
NMTTNERRVIVPADGTLWTQEHVRQWLEWAIKEYSLMEIDTSFFQNMDGKELCKMNKEDFLRATTLYNTEVLLSHLSYLRES	-1.07 ± 0.12
NMTTNERRVIVPADSTLWTQEHVRQWLEWAIKEYSLMEIDTSFFQNMDGKELCKMNKEDFLRATTLYNTEVLLSHLSYLRES	-0.565 ± 0.085
NMTTNERRVIVPADITLWTQEHVRQWLEWAIKEYSLMEIDTSFFQNMDGKELCKMNKEDFLRATTLYNTEVLLSHLSYLRES	-0.028 ± 0.085
NMTTNERRVIVPADFTLWTQEHVRQWLEWAIKEYSLMEIDTSFFQNMDGKELCKMNKEDFLRATTLYNTEVLLSHLSYLRES	-0.851 ± 0.18
NMTTNERRVIVPADCTLWTQEHVRQWLEWAIKEYSLMEIDTSFFQNMDGKELCKMNKEDFLRATTLYNTEVLLSHLSYLRES	-0.398 ± 0.076
NMTTNERRVIVPADYTLWTQEHVRQWLEWAIKEYSLMEIDTSFFQNMDGKELCKMNKEDFLRATTLYNTEVLLSHLSYLRES	-0.512 ± 0.15
NMTTNERRVIVPADDTLWTQEHVRQWLEWAIKEYSLMEIDTSFFQNMDGKELCKMNKEDFLRATTLYNTEVLLSHLSYLRES	-0.489 ± 0.18
NMTTNERRVIVPADKTLWTQEHVRQWLEWAIKEYSLMEIDTSFFQNMDGKELCKMNKEDFLRATTLYNTEVLLSHLSYLRES	-1.09 ± 0.31
NMTTNERRVIVPADWTLWTQEHVRQWLEWAIKEYSLMEIDTSFFQNMDGKELCKMNKEDFLRATTLYNTEVLLSHLSYLRES	-0.942 ± 0.16
NMTTNERRVIVPADQTLWTQEHVRQWLEWAIKEYSLMEIDTSFFQNMDGKELCKMNKEDFLRATTLYNTEVLLSHLSYLRES	-0.543 ± 0.13
NMTTNERRVIVPAQPTLWTQEHVRQWLEWAIKEYSLMEIDTSFFQNMDGKELCKMNKEDFLRATTLYNTEVLLSHLSYLRES	0.155 ± 0.27
NMTTNERRVIVPAWPTLWTQEHVRQWLEWAIKEYSLMEIDTSFFQNMDGKELCKMNKEDFLRATTLYNTEVLLSHLSYLRES	-0.354 ± 0.14
NMTTNERRVIVPAMPTLWTQEHVRQWLEWAIKEYSLMEIDTSFFQNMDGKELCKMNKEDFLRATTLYNTEVLLSHLSYLRES	-0.421 ± 0.14
NMTTNERRVIVPARPTLWTQEHVRQWLEWAIKEYSLMEIDTSFFQNMDGKELCKMNKEDFLRATTLYNTEVLLSHLSYLRES	-0.701 ± 0.12
NMTTNERRVIVPATPTLWTQEHVRQWLEWAIKEYSLMEIDTSFFQNMDGKELCKMNKEDFLRATTLYNTEVLLSHLSYLRES	-0.388 ± 0.12
NMTTNERRVIVPAKPTLWTQEHVRQWLEWAIKEYSLMEIDTSFFQNMDGKELCKMNKEDFLRATTLYNTEVLLSHLSYLRES	-0.564 ± 0.19
NMTTNERRVIVPAYPTLWTQEHVRQWLEWAIKEYSLMEIDTSFFQNMDGKELCKMNKEDFLRATTLYNTEVLLSHLSYLRES	0.011 ± 0.26
NMTTNERRVIVPANPTLWTQEHVRQWLEWAIKEYSLMEIDTSFFQNMDGKELCKMNKEDFLRATTLYNTEVLLSHLSYLRES	-0.063 ± 0.21

Variant	abundance fitness
NMTTNERRVIVPALPTLWTQEHVRQWLEWAIKEYSLMEIDTSFFQNMDGKELCKMNKEDFLRATTLYNTEVLLSHLSYLRES	-0.51 ± 0.091
NMTTNERRVIVPAIPTLWTQEHVRQWLEWAIKEYSLMEIDTSFFQNMDGKELCKMNKEDFLRATTLYNTEVLLSHLSYLRES	-0.467 ± 0.24
NMTTNERRVIVPAPPTLWTQEHVRQWLEWAIKEYSLMEIDTSFFQNMDGKELCKMNKEDFLRATTLYNTEVLLSHLSYLRES	-0.415 ± 0.26
NMTTNERRVIVPASPTLWTQEHVRQWLEWAIKEYSLMEIDTSFFQNMDGKELCKMNKEDFLRATTLYNTEVLLSHLSYLRES	-0.229 ± 0.17
NMTTNERRVIVPAVPTLWTQEHVRQWLEWAIKEYSLMEIDTSFFQNMDGKELCKMNKEDFLRATTLYNTEVLLSHLSYLRES	-0.353 ± 0.1
NMTTNERRVIVPADPTLDTQEHVRQWLEWAIKEYSLMEIDTSFFQNMDGKELCKMNKEDFLRATTLYNTEVLLSHLSYLRES	-0.803 ± 0.31
NMTTNERRVIVPADPTLFTQEHVRQWLEWAIKEYSLMEIDTSFFQNMDGKELCKMNKEDFLRATTLYNTEVLLSHLSYLRES	-0.719 ± 0.49
NMTTNERRVIVPADPTLGTQEHVRQWLEWAIKEYSLMEIDTSFFQNMDGKELCKMNKEDFLRATTLYNTEVLLSHLSYLRES	-0.458 ± 0.1
NMTTNERRVIVPADPTLATQEHVRQWLEWAIKEYSLMEIDTSFFQNMDGKELCKMNKEDFLRATTLYNTEVLLSHLSYLRES	-0.879 ± 0.14
NMTTNERRVIVPADPTNWTQEHVRQWLEWAIKEYSLMEIDTSFFQNMDGKELCKMNKEDFLRATTLYNTEVLLSHLSYLRES	-0.289 ± 0.17
NMTTNERRVIVPADPTTWTQEHVRQWLEWAIKEYSLMEIDTSFFQNMDGKELCKMNKEDFLRATTLYNTEVLLSHLSYLRES	-0.011 ± 0.096
NMTTNERRVIVPADPTRWTQEHVRQWLEWAIKEYSLMEIDTSFFQNMDGKELCKMNKEDFLRATTLYNTEVLLSHLSYLRES	-0.042 ± 0.064
NMTTNERRVIVPADPTKWTQEHVRQWLEWAIKEYSLMEIDTSFFQNMDGKELCKMNKEDFLRATTLYNTEVLLSHLSYLRES	-0.085 ± 0.096
NMTTNERRVIVPADPTGWTQEHVRQWLEWAIKEYSLMEIDTSFFQNMDGKELCKMNKEDFLRATTLYNTEVLLSHLSYLRES	0.09 ± 0.083
NMTTNERRVIVPADPTVWTQEHVRQWLEWAIKEYSLMEIDTSFFQNMDGKELCKMNKEDFLRATTLYNTEVLLSHLSYLRES	0.018 ± 0.065
NMTTNERRVIVPADPTEWTQEHVRQWLEWAIKEYSLMEIDTSFFQNMDGKELCKMNKEDFLRATTLYNTEVLLSHLSYLRES	0.087 ± 0.085
NMTTNERRVIVPADPTDWTQEHVRQWLEWAIKEYSLMEIDTSFFQNMDGKELCKMNKEDFLRATTLYNTEVLLSHLSYLRES	0.224 ± 0.24
NMTTNERRVIVPADPTFWTQEHVRQWLEWAIKEYSLMEIDTSFFQNMDGKELCKMNKEDFLRATTLYNTEVLLSHLSYLRES	-0.132 ± 0.17
NMTTNERRVIVPADPTHWTQEHVRQWLEWAIKEYSLMEIDTSFFQNMDGKELCKMNKEDFLRATTLYNTEVLLSHLSYLRES	0.081 ± 0.18
NMTTNERRVIVPADPTQWTQEHVRQWLEWAIKEYSLMEIDTSFFQNMDGKELCKMNKEDFLRATTLYNTEVLLSHLSYLRES	0.037 ± 0.088
NMTTNERRVIVPADPTYWTQEHVRQWLEWAIKEYSLMEIDTSFFQNMDGKELCKMNKEDFLRATTLYNTEVLLSHLSYLRES	-0.096 ± 0.16
NMTTNERRVIVPADPTSWTQEHVRQWLEWAIKEYSLMEIDTSFFQNMDGKELCKMNKEDFLRATTLYNTEVLLSHLSYLRES	0.008 ± 0.099
NMTTNERRVIVPADPTIWTQEHVRQWLEWAIKEYSLMEIDTSFFQNMDGKELCKMNKEDFLRATTLYNTEVLLSHLSYLRES	0.024 ± 0.21

Variant	abundance fitness
NMTTNERRVIVPADPTMWTQEHVRQWLEWAIKEYSLMEIDTSFFQNMDGKELCKMNKEDFLRATTLYNTEVLLSHLSYLRES	-0.328 ± 0.14
NMTTNERRVIVPADPTAWTQEHVRQWLEWAIKEYSLMEIDTSFFQNMDGKELCKMNKEDFLRATTLYNTEVLLSHLSYLRES	0.032 ± 0.075
NMTTNERRVIVPADPTWWTQEHVRQWLEWAIKEYSLMEIDTSFFQNMDGKELCKMNKEDFLRATTLYNTEVLLSHLSYLRES	-0.203 ± 0.081
NMTTNERRVIVPADPKLWTQEHVRQWLEWAIKEYSLMEIDTSFFQNMDGKELCKMNKEDFLRATTLYNTEVLLSHLSYLRES	-0.057 ± 0.055
NMTTNERRVIVPADPCLWTQEHVRQWLEWAIKEYSLMEIDTSFFQNMDGKELCKMNKEDFLRATTLYNTEVLLSHLSYLRES	-0.357 ± 0.45
NMTTNERRVIVPADPLLWTQEHVRQWLEWAIKEYSLMEIDTSFFQNMDGKELCKMNKEDFLRATTLYNTEVLLSHLSYLRES	-0.108 ± 0.089
NMTTNERRVIVPADPGLWTQEHVRQWLEWAIKEYSLMEIDTSFFQNMDGKELCKMNKEDFLRATTLYNTEVLLSHLSYLRES	-0.142 ± 0.094
NMTTNERRVIVPADPSLWTQEHVRQWLEWAIKEYSLMEIDTSFFQNMDGKELCKMNKEDFLRATTLYNTEVLLSHLSYLRES	-0.087 ± 0.12
NMTTNERRVIVPADPPLWTQEHVRQWLEWAIKEYSLMEIDTSFFQNMDGKELCKMNKEDFLRATTLYNTEVLLSHLSYLRES	-0.277 ± 0.17
NMTTNERRVIVPADPFLWTQEHVRQWLEWAIKEYSLMEIDTSFFQNMDGKELCKMNKEDFLRATTLYNTEVLLSHLSYLRES	0 ± 0.24
NMTTNERRVIVPADPQLWTQEHVRQWLEWAIKEYSLMEIDTSFFQNMDGKELCKMNKEDFLRATTLYNTEVLLSHLSYLRES	-0.306 ± 0.21
NMTTNERRVIVPADPVLWTQEHVRQWLEWAIKEYSLMEIDTSFFQNMDGKELCKMNKEDFLRATTLYNTEVLLSHLSYLRES	-0.052 ± 0.15
NMTTNERRVIVPADPNLWTQEHVRQWLEWAIKEYSLMEIDTSFFQNMDGKELCKMNKEDFLRATTLYNTEVLLSHLSYLRES	-0.22 ± 0.33
NMTTNERRVIVPADPALWTQEHVRQWLEWAIKEYSLMEIDTSFFQNMDGKELCKMNKEDFLRATTLYNTEVLLSHLSYLRES	0.086 ± 0.11
NMTTNERRVIVPADPILWTQEHVRQWLEWAIKEYSLMEIDTSFFQNMDGKELCKMNKEDFLRATTLYNTEVLLSHLSYLRES	-0.036 ± 0.3
NMTTNERRVIVPADPDLWTQEHVRQWLEWAIKEYSLMEIDTSFFQNMDGKELCKMNKEDFLRATTLYNTEVLLSHLSYLRES	-0.082 ± 0.38
NMTTNERRVIVPADPWLWTQEHVRQWLEWAIKEYSLMEIDTSFFQNMDGKELCKMNKEDFLRATTLYNTEVLLSHLSYLRES	-0.021 ± 0.13
NMTTNERRVIVPADPELWTQEHVRQWLEWAIKEYSLMEIDTSFFQNMDGKELCKMNKEDFLRATTLYNTEVLLSHLSYLRES	-0.159 ± 0.18
NMTTNERRVIVPADPYLWTQEHVRQWLEWAIKEYSLMEIDTSFFQNMDGKELCKMNKEDFLRATTLYNTEVLLSHLSYLRES	-0.166 ± 0.47
NMTTNERRVIVPADPRLWTQEHVRQWLEWAIKEYSLMEIDTSFFQNMDGKELCKMNKEDFLRATTLYNTEVLLSHLSYLRES	-0.139 ± 0.12
NMTTNERRVIVPADPMLWTQEHVRQWLEWAIKEYSLMEIDTSFFQNMDGKELCKMNKEDFLRATTLYNTEVLLSHLSYLRES	-0.022 ± 0.12
